According to patent publication US20170112904A1:

Experiments:
Experiment in all cases: cell-based or functional assay
[1] = biological target: T1, human glucose-dependent insulinotropic polypeptide receptor (human) (UniProt P48546)
T1 sequence (looked up): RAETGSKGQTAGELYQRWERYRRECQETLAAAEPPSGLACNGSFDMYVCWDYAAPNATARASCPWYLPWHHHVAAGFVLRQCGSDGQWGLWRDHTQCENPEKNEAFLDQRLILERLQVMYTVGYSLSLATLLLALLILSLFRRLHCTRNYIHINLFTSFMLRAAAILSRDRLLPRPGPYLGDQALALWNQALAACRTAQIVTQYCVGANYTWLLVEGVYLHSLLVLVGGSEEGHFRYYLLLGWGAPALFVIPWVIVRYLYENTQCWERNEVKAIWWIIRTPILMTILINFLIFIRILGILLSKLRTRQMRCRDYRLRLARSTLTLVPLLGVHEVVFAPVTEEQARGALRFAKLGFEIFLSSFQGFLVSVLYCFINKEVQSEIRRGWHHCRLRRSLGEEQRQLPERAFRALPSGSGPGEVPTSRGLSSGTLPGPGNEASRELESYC

[2] = biological target: recombinant human glucagon receptor (human) (UniProt P47871)
Chain of recombinant human glucagon receptor (human) (P47871 26-477): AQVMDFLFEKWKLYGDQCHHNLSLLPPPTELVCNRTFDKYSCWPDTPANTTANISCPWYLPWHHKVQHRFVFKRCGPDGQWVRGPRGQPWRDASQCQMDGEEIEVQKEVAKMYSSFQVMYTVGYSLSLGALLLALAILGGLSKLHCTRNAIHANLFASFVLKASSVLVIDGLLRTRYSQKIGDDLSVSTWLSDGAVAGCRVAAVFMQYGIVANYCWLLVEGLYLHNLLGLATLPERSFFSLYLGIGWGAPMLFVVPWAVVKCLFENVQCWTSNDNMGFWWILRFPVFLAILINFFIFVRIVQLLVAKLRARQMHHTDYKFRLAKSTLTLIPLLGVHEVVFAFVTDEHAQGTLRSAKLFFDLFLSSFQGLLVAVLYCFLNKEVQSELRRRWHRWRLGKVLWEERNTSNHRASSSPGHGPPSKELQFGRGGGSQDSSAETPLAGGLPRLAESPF

[3] = biological target: human Glucagon-Like Peptide-1 receptor (human) (UniProt P43220)
Chain of human Glucagon-Like Peptide-1 receptor (human) (P43220 24-463): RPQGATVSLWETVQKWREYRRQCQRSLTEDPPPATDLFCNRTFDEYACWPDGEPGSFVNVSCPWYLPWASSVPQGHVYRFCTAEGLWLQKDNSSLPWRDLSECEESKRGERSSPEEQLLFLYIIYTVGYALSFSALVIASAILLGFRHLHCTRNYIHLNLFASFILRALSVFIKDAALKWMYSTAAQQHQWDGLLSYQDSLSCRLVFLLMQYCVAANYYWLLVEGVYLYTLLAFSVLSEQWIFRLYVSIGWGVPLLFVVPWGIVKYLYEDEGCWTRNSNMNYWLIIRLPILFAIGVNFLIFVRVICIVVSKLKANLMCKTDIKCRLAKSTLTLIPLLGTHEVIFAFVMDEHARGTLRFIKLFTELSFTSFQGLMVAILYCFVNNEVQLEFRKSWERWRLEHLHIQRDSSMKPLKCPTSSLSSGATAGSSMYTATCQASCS

Chain of dulaglutide (Fc fusion) (chain): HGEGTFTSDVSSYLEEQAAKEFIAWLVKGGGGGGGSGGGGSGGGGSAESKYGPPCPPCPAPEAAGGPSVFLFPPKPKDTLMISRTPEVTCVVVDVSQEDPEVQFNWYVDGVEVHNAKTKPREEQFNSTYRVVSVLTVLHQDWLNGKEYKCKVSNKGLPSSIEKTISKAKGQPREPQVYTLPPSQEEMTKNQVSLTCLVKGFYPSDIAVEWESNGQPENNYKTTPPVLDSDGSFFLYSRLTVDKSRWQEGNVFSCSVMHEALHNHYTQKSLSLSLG

With dulaglutide (Fc fusion) the EC50, GIP Receptor Assay; sample C6.5-4 C.-4 wk [1] was > 100 nM, the EC50, GIP Receptor Assay; sample C6.5-40 C.-4 wk [1] was > 100 nM and the EC50, GIP Receptor Assay; sample C6.5MT-4 C.-4 wk [1] was > 100 nM. For the same substance, the EC50, GIP Receptor Assay; sample C6.5MT-40 C.-4 wk [1] was > 100 nM, the EC50, Gcg Receptor Assay; sample C6.5-4 C.-4 wk [2] was 51.9 nM and the EC50, Gcg Receptor Assay; sample C6.5-40 C.-4 wk [2] was > 100 nM. The EC50, Gcg Receptor Assay; sample C6.5MT-4 C.-4 wk [2] was 54 nM, the EC50, Gcg Receptor Assay; sample C6.5MT-40 C.-4 wk [2] was > 100 nM and the EC50, GLP-1 Receptor Assay; sample C6.5-4 C.-4 wk [3] was 0.37 nM. For the same substance, the EC50, GLP-1 Receptor Assay; sample C6.5-40 C.-4 wk [3] was 0.31 nM, the EC50, GLP-1 Receptor Assay; sample C6.5MT-4 C.-4 wk [3] was 0.4 nM and the EC50, GLP-1 Receptor Assay; sample C6.5MT-40 C.-4 wk [3] was 0.29 nM.
